In the supplement of paper PMC7125110:
± gives the standard error. For some of these results: Fewer inactive variants are shown than the library holds.

B1: glmS ribozyme (parent)
chain: AUAAAAGCGCCAGAACUACAGAAAUGUAGUUGACGAGGAGGAGGUUUAUCGAAUUUUCGGCGGAUGCCUCCAAA

Tests used:
Conditions in all cases: with glucosamine-6-phosphate
[1] = variants of: B1; assay: kcat; higher = faster cleavage; RNA array
How it was run: (§1)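 Barcoded ribozyme variants, transcribed in situ by E. coli RNA polymerase on sequenced MiSeq chips, were followed via a hybridised Cy3 probe at 37 °C. Glucosamine-6-phosphate ranged from 40 μM to 10 mM in HEPES/KCl/Mg(OAc)2 buffer. kobs came from decay fits to per-tile medians, and kcat and KM from weighted Michaelis–Menten fits.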

[2] = variants of: B1; assay: self-cleavage kobs at 40 uM GlcN6P; higher = faster cleavage; RNA array
How it was run: as §1

[3] = variants of: B1; assay: self-cleavage kobs at 160 uM GlcN6P; higher = faster cleavage; RNA array
How it was run: as §1

[4] = variants of: B1; assay: self-cleavage kobs at 640 uM GlcN6P; higher = faster cleavage; RNA array
How it was run: as §1

[5] = variants of: B1; assay: self-cleavage kobs at 2500 uM GlcN6P; higher = faster cleavage; RNA array
How it was run: as §1

[6] = variants of: B1; assay: self-cleavage kobs at 10000 uM GlcN6P; higher = faster cleavage; RNA array
How it was run: as §1

[7] = variants of: B1; assay: KM; higher = weaker cofactor use; RNA array
How it was run: as §1

Variant | kcat [1] | self-cleavage kobs at 40 uM GlcN6P [2] | self-cleavage kobs at 160 uM GlcN6P [3] | self-cleavage kobs at 640 uM GlcN6P [4] | self-cleavage kobs at 2500 uM GlcN6P [5] | self-cleavage kobs at 10000 uM GlcN6P [6] | KM [7]
G41A U45G | 0.000391 ± 0.00013 s⁻¹ | 2.84e-05 ± 1.3e-05 s⁻¹ | 3e-05 ± 1.3e-05 s⁻¹ | 0.000144 ± 2.4e-05 s⁻¹ | 0.000565 ± 0.0001 s⁻¹ | 0.000304 ± 5.2e-05 s⁻¹ | –
U46A A53G | 0.00162 ± 0.00057 s⁻¹ | 8.49e-05 ± 1.5e-05 s⁻¹ | 0.000201 ± 3.7e-05 s⁻¹ | 0.000508 ± 8.1e-05 s⁻¹ | 0.00104 ± 0.00016 s⁻¹ | 0.00261 ± 0.00051 s⁻¹ | –
A12G U30C | 0.000109 ± 8.8e-06 s⁻¹ | – | – | 2.84e-05 ± 1.3e-05 s⁻¹ | 4.54e-05 ± 7.7e-06 s⁻¹ | 8.29e-05 ± 5.8e-06 s⁻¹ | 3180 ± 800 µM
A15C G41C | 3.33e-05 ± 2.9e-06 s⁻¹ | – | – | – | – | 2.79e-05 ± 1.2e-05 s⁻¹ | 1850 ± 570 µM
A52U C70A | 5.6e-05 ± 1.2e-05 s⁻¹ | – | 3.06e-05 ± 1.5e-05 s⁻¹ | 3.63e-05 ± 1.3e-05 s⁻¹ | 8.32e-05 ± 1.6e-05 s⁻¹ | 4.7e-05 ± 1e-05 s⁻¹ | –
A48U A53G | 0.000396 ± 3.6e-05 s⁻¹ | – | 2.96e-05 ± 1.2e-05 s⁻¹ | 0.000127 ± 1.9e-05 s⁻¹ | 0.000229 ± 3.5e-05 s⁻¹ | 0.000349 ± 4.7e-05 s⁻¹ | 1560 ± 290 µM
G13U U46G | 0.000174 ± 4.9e-06 s⁻¹ | – | – | 5.44e-05 ± 1.5e-05 s⁻¹ | 0.000107 ± 2.4e-05 s⁻¹ | 0.000153 ± 2.1e-05 s⁻¹ | 1460 ± 120 µM
A39U U57A | 0.0002 ± 1.2e-05 s⁻¹ | – | – | 2.12e-05 ± 7.4e-06 s⁻¹ | 7.13e-05 ± 1e-05 s⁻¹ | 0.000134 ± 1.5e-05 s⁻¹ | 4780 ± 530 µM
A15G A39G | 0.024 ± 0.0095 s⁻¹ | 0.0013 ± 0.00018 s⁻¹ | 0.00251 ± 0.00078 s⁻¹ | 0.0174 ± 0.0035 s⁻¹ | 0.037 ± 0.017 s⁻¹ | 0.0199 ± 0.0048 s⁻¹ | –
C50G A53G | 4.4e-05 ± 2.2e-05 s⁻¹ | – | – | – | 3.81e-05 ± 1.5e-05 s⁻¹ | – | –
C11A U56A | 0.000143 ± 1.9e-06 s⁻¹ | – | – | 3.27e-05 ± 1e-05 s⁻¹ | 7.89e-05 ± 1.5e-05 s⁻¹ | 0.000118 ± 1.3e-05 s⁻¹ | 2090 ± 78 µM
C11G A12C | 0.000156 ± 3.2e-05 s⁻¹ | – | – | – | 6.61e-05 ± 1.2e-05 s⁻¹ | 0.00011 ± 1.3e-05 s⁻¹ | –
U55C G66C | 0.00112 ± 9.6e-05 s⁻¹ | – | 7.47e-05 ± 1.8e-05 s⁻¹ | 0.000336 ± 7.1e-05 s⁻¹ | 0.000678 ± 0.00012 s⁻¹ | 0.000913 ± 9.7e-05 s⁻¹ | 1950 ± 340 µM
G51U C67U | < 1e-05 s⁻¹ | – | – | – | – | < 1e-05 s⁻¹ | –
U45A G59U | 0.00047 ± 0.00017 s⁻¹ | < 1e-05 s⁻¹ | – | – | 5.25e-05 ± 1.3e-05 s⁻¹ | 0.000152 ± 2.4e-05 s⁻¹ | –
U30G A36G C71G | 1.69e-05 ± 3.9e-06 s⁻¹ | < 1e-05 s⁻¹ | – | – | < 1e-05 s⁻¹ | < 1e-05 s⁻¹ | –
